Data from the supplement of paper PMC5998384.

Experiments:
HeLa Kyoto [1] = test: solubility in G1/S (NP-40 vs SDS abundance) (log2 ratio); higher = more soluble; settings: cell cycle stage: G1/S
HeLa Kyoto [2] = test: melting temperature (median over replicates), in situ; higher = more thermally stable
HeLa Kyoto [3] = test: solubility change mitosis vs G1/S (difference of NP-40 vs SDS log2 ratios) (log2 ratio difference); higher = more soluble in mitosis
HeLa Kyoto [4] = test: thermal stability score vs G1/S (z-score of summed log2 fold changes over temperatures); higher = more thermally stable than in G1/S
[5] = cell cycle stage: early G1 (4.5 h after nocodazole release)
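Throughout, for melting temperature (median over replicates), in situ: HeLa Kyoto cells synchronized by double thymidine or nocodazole block, proteins quantified by TMT10plex mass spectrometry, three independent biological replicates.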
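Throughout, for solubility change mitosis vs G1/S (difference of NP-40 vs SDS log2 ratios): synchronized HeLa Kyoto cells (double thymidine block for G1/S, nocodazole release for mitosis), protein amounts in NP-40 versus SDS lysates quantified by mass spectrometry, three biological replicates.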
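Throughout, for solubility in G1/S (NP-40 vs SDS abundance): HeLa Kyoto cells arrested at G1/S by double thymidine block, proteins quantified by TMT10plex mass spectrometry in mild NP-40 versus SDS extracts, three biological replicates.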
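Throughout, for thermal stability score vs G1/S (z-score of summed log2 fold changes over temperatures): synchronized HeLa Kyoto cells, proteins quantified by TMT10plex mass spectrometry, three biological replicates, mitosis taken 0.5 h after nocodazole release, G1/S directly after double thymidine block.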

Row | Sequence | solubility in G1/S (log2) (HeLa Kyoto [1]) | melting temperature (HeLa Kyoto [2]; cell cycle stage: G1/S) | melting temperature (HeLa Kyoto [2]; cell cycle stage: mitosis) | solubility change mitosis (log2) (HeLa Kyoto [3]) | thermal stability score (HeLa Kyoto [4]; [5]) | thermal stability score (HeLa Kyoto [4]; cell cycle stage: mitosis)
1 | MRVRIGLTLLLCAVLLSLASASSDEEGSQDESLDSKTTLTSDESVKDHTTAGRVVAGQIFLDSEESELESSIQEEEDSLKSQEGESVTEDISFLESPNPENKDYEEPKKVRKPALTAIEGTAHGEPCHFPFLFLDKEYDECTSDGREDGRLWCATTYDYKADEKWGFCETEEEAAKRRQMQEAEMMYQTGMKILNGSNKKSQKREAYRYLQKAASMNHTKALERVSYALLFGDYLPQNIQAAREMFEKLTEEGSPKGQTALGFLYASGLGVNSSQAKALVYYTFGALGGNLIAHMVLGYRYWAGIGVLQSCESALTHYRLVANHVASDISLTGGSVVQRIRLPDEVENPGMNSGMLEEDLIQYYQFLAEKGDVQAQVGLGQLHLHGGRGVEQNHQRAFDYFNLAANAGNSHAMAFLGKMYSEGSDIVPQSNETALHYFKKAADMGNPVGQSGLGMAYLYGRGVQVNYDLALKYFQKAAEQGWVDGQLQLGSMYYNGIGVKRDYKQALKYFNLASQGGHILAFYNLAQMHASGTGVMRSCHTAVELFKNVCERGRWSERLMTAYNSYKDGDYNAAVIQYLLLAEQGYEVAQSNAAFILDQREASIVGENETYPRALLHWNRAASQGYTVARIKLGDYHFYGFGTDVDYETAFIHYRLASEQQHSAQAMFNLGYMHEKGLGIKQDIHLAKRFYDMAAEASPDAQVPVFLALCKLGVVYFLQYIRETNIRDMFTQLDMDQLLGPEWDLYLMTIIALLLGTVIAYRQRQHQDMPAPRPPGPRPAPPQQEGPPEQQPPQ [SEL1L] | 0.228 | 53.9 °C | 52 °C | -0.0462 | -0.563 | -0.64
2 | MRWGHHLPRASWGSGFRRALQRPDDRIPFLIHWSWPLQGERPFGPPRAFIRHHGSSVDSAPPPGRHGRLFPSASATEAIQRHRRNLAEWFSRLPREERQFGPTFALDTVHVDPVIRESTPDELLRPPAELALEHQPPQAGLPPLALSQLFNPDACGRRVQTVVLYGTVGTGKSTLVRKMVLDWCYGRLPAFELLIPFSCEDLSSLGPAPASLCQLVAQRYTPLKEVLPLMAAAGSHLLFVLHGLEHLNLDFRLAGTGLCSDPEEPQEPAAIIVNLLRKYMLPQASILVTTRPSAIGRIPSKYVGRYGEICGFSDTNLQKLYFQLRLNQPYCGYAVGGSGVSATPAQRDHLVQMLSRNLEGHHQIAAACFLPSYCWLVCATLHFLHAPTPAGQTLTSIYTSFLRLNFSGETLDSTDPSNLSLMAYAARTMGKLAYEGVSSRKTYFSEEDVCGCLEAGIRTEEEFQLLHIFRRDALRFFLAPCVEPGRAGTFVFTVPAMQEYLAALYIVLGLRKTTLQKVGKEVAELVGRVGEDVSLVLGIMAKLLPLRALPLLFNLIKVVPRVFGRMVGKSREAVAQAMVLEMFREEDYYNDDVLDQMGASILGVEGPRRHPDEPPEDEVFELFPMFMGGLLSAHNRAVLAQLGCPIKNLDALENAQAIKKKLGKLGRQVLPPSELLDHLFFHYEFQNQRFSAEVLSSLRQLNLAGVRMTPVKCTVVAAVLGSGRHALDEVNLASCQLDPAGLRTLLPVFLRARKLGLQLNSLGPEACKDLRDLLLHDQCQITTLRLSNNPLTAAGVAVLMEGLAGNTSVTHLSLLHTGLGDEGLELLAAQLDRNRQLQELNVAYNGAGDTAALALARAAREHPSLELLHLYFNELSSEGRQVLRDLGGAAEGGARVVVSLTEGTAVSEYWSVILSEVQRNLNSWDRARVQRHLELLLRDLEDSRGATLNPWRKAQLLRVEGEVRALLEQLGSSGS [NLRX1] | -0.273 | 54.3 °C | 54.7 °C | 0.0927 | -0.577 | -2.13
3 | MRWGLRPRGPGAAALATARSLWGTPRLPCSPGWQGATKRLLVRSVSGASNHQPNSNSGRYRDTVLLPQTSFPMKLLGRQQPDTELEIQQKCGFSELYSWQRERKVKTEFCLHDGPPYANGDPHVGHALNKILKDIANRFHMMNGSKIHFVPGWDCHGLPIEIKVLSELGREAQNLSAMEIRKKARSFAKAAIEKQKSAFIRWGIMADWNNCYYTFDGKYEAKQLRTFYQMYDKGLVYRSYKPVFWSPSSRTALAEAELEYNPEHVSRSIYVKFPLLKPSPKLASLIDGSSPVSILVWTTQPWTIPANEAVCYMPESKYAVVKCSKSGDLYVLAADKVASVASTLETTFETISTLSGVDLENGTCSHPLIPDKASPLLPANHVTMAKGTGLVHTAPAHGMEDYGVASQHNLPMDCLVDEDGVFTDVAGPELQNKAVLEEGTDVVIKMLQTAKNLLKEEKLVHSYPYDWRTKKPVVIRASKQWFINITDIKTAAKELLKKVKFIPGSALNGMVEMMDRRPYWCISRQRVWGVPIPVFHHKTKDEYLINSQTTEHIVKLVEQHGSDIWWTLPPEQLLPKEVLSEVGGPDALEYVPGQDILDIWFDSGTSWSYVLPGPDQRADLYLEGKDQLGGWFQSSLLTSVAARKRAPYKTVIVHGFTLGEKGEKMSKSLGNVIHPDVVVNGGQDQSKEPPYGADVLRWWVADSNVFTEVAIGPSVLNAARDDISKLRNTLRFLLGNVADFNPETDSIPVNDMYVIDQYMLHLLQDLANKITELYKQYDFGKVVRLLRTFYTRELSNFYFSIIKDRLYCEKENDPKRRSCQTALVEILDVIVRSFAPILPHLAEEVFQHIPYIKEPKSVFRTGWISTSSIWKKPGLEEAVESACAMRDSFLGSIPGKNAAEYKVITVIEPGLLFEIIEMLQSEETSSTSQLNELMMASESTLLAQEPREMTADVIELKGKFLINLEGGDIREESSYKVIVMPTTKEKCPRCWKYTAESSDTLCPRCAEVVSGK [IARS2] | -0.0329 | 54.9 °C | 54.9 °C | -0.0958 | -0.383 | -1.42
4 | MSAAIAALAASYGSGSGSESDSDSESSRCPLPAADSLMHLTKSPSSKPSLAVAVDSAPEVAVKEDLETGVHLDPAVKEVQYNPTYETMFAPEFGPENPFRTQQMAAPRNMLSGYAEPAHINDFMFEQQRRTFATYGYALDPSLDNHQVSAKYIGSVEEAEKNQGLTVFETGQKKTEKRKKFKENDASNIDGFLGPWAKYVDEKDVAKPSEEEQKELDEITAKRQKKGKQEEEKPGEEKTILHVKEMYDYQGRSYLHIPQDVGVNLRSTMPPEKCYLPKKQIHVWSGHTKGVSAVRLFPLSGHLLLSCSMDCKIKLWEVYGERRCLRTFIGHSKAVRDICFNTAGTQFLSAAYDRYLKLWDTETGQCISRFTNRKVPYCVKFNPDEDKQNLFVAGMSDKKIVQWDIRSGEIVQEYDRHLGAVNTIVFVDENRRFVSTSDDKSLRVWEWDIPVDFKYIAEPSMHSMPAVTLSPNGKWLACQSMDNQILIFGAQNRFRLNKKKIFKGHMVAGYACQVDFSPDMSYVISGDGNGKLNIWDWKTTKLYSRFKAHDKVCIGAVWHPHETSKVITCGWDGLIKLWD [CDC40] | -0.918 | 53.1 °C | 51.9 °C | 0.525 | -1 | -0.655
5 | MSAEVETSEGVDESEKKNSGALEKENQMRMADLSELLKEGTKEAHDRAENTQFVKDFLKGNIKKELFKLATTALYFTYSALEEEMERNKDHPAFAPLYFPMELHRKEALTKDMEYFFGENWEEQVQCPKAAQKYVERIHYIGQNEPELLVAHAYTRYMGDLSGGQVLKKVAQRALKLPSTGEGTQFYLFENVDNAQQFKQLYRARMNALDLNMKTKERIVEEANKAFEYNMQIFNELDQAGSTLARETLEDGFPVHDGKGDMRKCPFYAAEQDKGALEGSSCPFRTAMAVLRKPSLQFILAAGVALAAGLLAWYYM [HMOX2] | 0.427 | 49.4 °C | 51 °C | 0.0224 | 0.884 | 1.97
